In patent publication US20240262904A1 (SHANGHAI MABGEEK BIOTECH, published 2024):

B1: humanized anti-human TSLP antibody 163H (antibody, human IgG1, kappa, V domains shown)
VH: EVQLVESGGGLVQPGGSLRLSCAASGFTFSSFGMHWVRQAPGKGLEWVSYISSGSSNIYYADTVKGRFTISRDNAKNSLYLQMNSLRAEDTAVYYCARDGGSRRHYYVMDYWGQGTLVTVSS
VL: EIVLTQSPATLSLSPGERATLSCKASQDVSPAVAWYQQKPGQSPRLLIYSASYRYTGVPARFSGSGSGTDFTLTISSLEPEDFAVYYCQQHYSSPFTFGQGTKLEIKR
notes: Humanized, human IgG1 constant region
B2: humanized anti-human TSLP antibody 111H (antibody, human IgG1, kappa, V domains shown)
VH: EVQLVESGGGLVQPGGSLRLSCSVSGFSLTYSGVNWVRQAPGKGLEWLGAIWGDGSTNYHSALISRLTISKDNSKSTVYLQMNSLRAEDTAVYYCAKPDGYSGIFAYWGQGTLVTVSS
VL: EIVLTQSPGTLSLSPGERATLSCSASSSLSSNYLHWYQQKPGQAPRLLIYRTSNLASGVPDRFSGSGSGTDFTLTISRLEPEDFAVYYCQQGSGILVTFGQGTKLEIKR
notes: Humanized, human IgG1 constant region; also called humanized antibody No. 111
B3: humanized anti-human TSLP antibody 101H (antibody, human IgG1, kappa, V domains shown)
VH: QVQLVQSGAEVKKPGASVKVSCKTSGYTFTKYWIQWVRQAPGQGLEWIGEIFPGTGTTYYNEIFKARVTLTVDTSTSTAYMELSSLRSEDTAVYYCARRGDYDVYYALDYWGQGTLVTVSS
VL: EIVLTQSPATLSLSPGERATLSCSANSGVNYIHWYQQKPGQAPRFWIWTTSNLASGVPARFSGSGSGTDFTLTISSLEPEDFAVYYCQQRSSYPFTFGQGTKLEIKR
notes: Humanized, human IgG1 constant region; also called humanized antibody No. 101

Key:
[1] = molecular target: T1, human TSLP antigen tagged with Flag (hTSLP-Flag) (human, UniProt Q969D9 29-159, limits assumed); experiment: cell-based or functional assay
[2] = molecular target: T1, human TSLP antigen tagged with Flag …; experiment: SPR, Biacore T200, antibody captured on Protein A chip, hTSLP-Flag as analyte
TSLP-flag-Biotin = molecular target: T2, TSLP-flag-Biotin (human, UniProt Q969D9 29-159, limits assumed, biotin label, site not stated); experiment: competition ELISA by the method of Example 5: blocks TSLP-flag-Biotin binding to coated TSLPR-ECD-hFc
T2 construct: the labelling is not described; also called biotinylated TSLP-flag

Binder | IC50 of inhibition of TSLP-dependent STAT5 activation (luciferase, IL-7R/TSLPR-BaF3-Luc (STAT5) cells, TSLP-flag stimulus) [1] [µg/mL] | Kd [2] [nM] | koff [2] [s⁻¹] | kon [2] [M⁻¹ s⁻¹] | IC50 (TSLP-flag-Biotin) [µg/mL]
B1 | 0.378 | 0.0513 | 0.000302 | 5.89e+06 | 0.159
B2 | 0.184 |  |  |  | 0.167
B3 |  |  |  |  | 0.185
